According to article PMC5792436, “TT(N)mGCCTC inhibits archaeal family B DNA polymerases”:

Key:
[1] = target: Taq DNA polymerase (Fig. 4A) (UniProt P19821 1-832); experiment: EMSA; no Mg2+; 10 mM Tris-HCl pH 7.9, 50 mM KCl, 1 mM EDTA, 5% glycerol, 1 mM DTT, 25 ug/ml BSA; no MgCl2, no poly(dI-dC); 20 min at room temperature; 6% PAGE in 0.5X TBE; conditions: protein: commercial; label: 5' biotin
[2] = target: T1, KOD DNA polymerase, purified (pET22b-KOD) (UniProt D0VWU9 1-774); experiment: EMSA; 2 nM DNA, no Mg2+; 10 mM Tris-HCl pH 7.9, 50 mM KCl, 1 mM EDTA, 5% glycerol, 1 mM DTT, 25 ug/ml BSA; no MgCl2, no poly(dI-dC); 20 min at room temperature; 6% PAGE in 0.5X TBE; conditions: protein: recombinant; tags: His; label: 5' biotin
T1 sequence: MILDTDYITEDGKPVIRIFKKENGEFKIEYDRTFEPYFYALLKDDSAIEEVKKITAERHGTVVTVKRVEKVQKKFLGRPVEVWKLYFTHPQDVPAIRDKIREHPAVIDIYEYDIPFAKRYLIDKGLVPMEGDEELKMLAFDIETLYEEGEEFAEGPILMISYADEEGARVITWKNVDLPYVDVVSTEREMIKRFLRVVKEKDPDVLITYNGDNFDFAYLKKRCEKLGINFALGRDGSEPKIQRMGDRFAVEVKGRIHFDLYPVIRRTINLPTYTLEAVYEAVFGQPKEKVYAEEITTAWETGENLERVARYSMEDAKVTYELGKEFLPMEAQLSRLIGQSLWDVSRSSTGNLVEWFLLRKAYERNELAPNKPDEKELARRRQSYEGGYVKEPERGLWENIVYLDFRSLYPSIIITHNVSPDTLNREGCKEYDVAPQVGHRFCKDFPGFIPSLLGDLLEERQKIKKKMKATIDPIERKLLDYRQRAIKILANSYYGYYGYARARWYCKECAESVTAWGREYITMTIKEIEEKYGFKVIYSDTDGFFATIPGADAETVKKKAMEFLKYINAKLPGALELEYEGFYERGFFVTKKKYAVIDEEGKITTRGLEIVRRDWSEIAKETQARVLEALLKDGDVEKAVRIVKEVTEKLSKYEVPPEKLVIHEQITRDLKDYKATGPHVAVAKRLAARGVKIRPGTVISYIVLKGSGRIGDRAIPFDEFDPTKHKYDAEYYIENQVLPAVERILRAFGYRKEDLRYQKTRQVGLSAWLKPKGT

Chain of Taq DNA polymerase (Fig. 4A) (P19821 whole entry): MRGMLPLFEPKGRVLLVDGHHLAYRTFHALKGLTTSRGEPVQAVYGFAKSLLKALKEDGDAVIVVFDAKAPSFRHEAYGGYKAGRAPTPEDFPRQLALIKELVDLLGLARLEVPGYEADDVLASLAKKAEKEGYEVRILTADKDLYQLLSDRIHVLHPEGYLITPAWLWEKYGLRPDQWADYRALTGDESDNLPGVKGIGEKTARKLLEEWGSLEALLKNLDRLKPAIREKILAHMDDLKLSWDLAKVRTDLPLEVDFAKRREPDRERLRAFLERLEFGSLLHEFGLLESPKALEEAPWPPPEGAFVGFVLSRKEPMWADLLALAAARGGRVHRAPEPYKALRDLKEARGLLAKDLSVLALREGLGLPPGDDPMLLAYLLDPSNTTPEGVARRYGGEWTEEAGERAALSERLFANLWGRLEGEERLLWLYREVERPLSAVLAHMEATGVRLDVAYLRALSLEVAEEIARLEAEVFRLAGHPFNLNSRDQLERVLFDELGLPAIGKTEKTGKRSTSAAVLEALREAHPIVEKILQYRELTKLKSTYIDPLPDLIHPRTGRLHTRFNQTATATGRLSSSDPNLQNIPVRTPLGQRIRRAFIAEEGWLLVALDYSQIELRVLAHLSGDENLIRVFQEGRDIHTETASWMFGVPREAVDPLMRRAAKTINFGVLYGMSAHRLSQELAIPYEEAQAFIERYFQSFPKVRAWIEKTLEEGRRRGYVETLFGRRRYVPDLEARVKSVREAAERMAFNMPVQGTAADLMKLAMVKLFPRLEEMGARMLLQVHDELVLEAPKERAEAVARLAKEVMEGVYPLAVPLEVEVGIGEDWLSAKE

TACCGAGCTCTTACGCGTGCCTCTGACTTGCCTCAGAGC (ssDNA) [Bio-Olig2.5] was tested, and the binding result [1] was “no binding” and the Kd [2] was about 40 nM.
